Assay results taken from PMC3102659.

Experiments:
[1] = molecular target: human blood coagulation factor X (FX) (human); assay: SPR; biotinylated hypersulfated heparin (HS) on a streptavidin CM4 chip, BIAcore3000; hexon or virions injected alone or mixed with FX or FXGL; read-out is the FX-bridged binding to HS; HBS (10 mM HEPES, 150 mM NaCl, pH 7.4) with 3 mM CaCl2, 5 µl/min
[2] = molecular target: human blood coagulation factor X (FX) (human)
[3] = molecular target: human blood coagulation factor X (FX) (human); remark: listed apart in the source
[4] = molecular target: immobilized HS (hypersulfated heparin), bridged by FX (m1); assay: SPR; conditions: virion + FX at 8 µg/ml (FXmax); HS immobilized on chip; read at end of injection (~285 s); parent: est. 2900; read off a plot
[5] = molecular target: TTAT mutant fiber of HAdV5 (KKTK motif of the shaft mutated) (human adenovirus serotype 5) (UniProt P11818); assay: not stated; data not shown: folding of TTAT mutant fibers as trimers

HAdV5F35 virion (serotype 35 fiber-pseudotyped HAdV5 vector) (from UniProt P04133 1-952; P12538 1-571) (complex)
copies of FX per virion at maximum FX-mediated binding to HS (copies of FX per virion) [1]: 480 | cell-bound virions on CHO-K1 cells (qPCR of viral genomes), MOI 5,000, 1 h at 4°C, increase with FX 8 µg/ml over no FX [2]: 10 fold

HAdV5F^TTAT virion (HAdV5 vector mutated in the KKTK motif of the fiber shaft) (from UniProt P04133 1-952; P12538 1-571; P11818 1-581) (complex)
enhancement of transduction efficiency of CHO-K1 cells, MOI 2,500, increasing doses of FX up to FXmax (8 µg/ml) [3]: 65 fold

HAdV5wt virion (replication-deficient HAdV5 vector with nonmodified capsid) (from UniProt P04133 1-952; P12538 1-571; P11818 1-581) (complex)
cell-bound virions on CHO-K1 cells (qPCR of viral genomes), MOI 5,000, 1 h at 4°C, increase with FX 8 µg/ml over no FX [2]: 5 to 6 fold

HAdV5wt virion (replication-deficient HAdV5 vector with nonmodified capsid) (from UniProt P04133;P12538;P11818) fiber:K91T; fiber:K92T; fiber:T93A; fiber:K94T
response [4]: 2400 RU

HAdV5wt virion (replication-deficient HAdV5 vector with nonmodified capsid) (from UniProt P04133;P12538;P11818) penton base:R340E
response [4]: 2500 RU

TTAT mutant fiber of HAdV5 (KKTK motif of the shaft mutated) (from UniProt P11818 1-581) (natural protein)
stoichiometry N [5]: 3
